Values quoted from earlier work in article PMC3460238.
Like-named read-outs stand apart in the source and are kept apart here.

Tests used:
[1] = biological target: C3b (Homo sapiens) (UniProt P01024)
[2] = biological target: C3b (Homo sapiens) (UniProt P01024); remark: listed apart in the source

Sequence of C3b (Homo sapiens) (P01024 23-667, chain 1 of 2): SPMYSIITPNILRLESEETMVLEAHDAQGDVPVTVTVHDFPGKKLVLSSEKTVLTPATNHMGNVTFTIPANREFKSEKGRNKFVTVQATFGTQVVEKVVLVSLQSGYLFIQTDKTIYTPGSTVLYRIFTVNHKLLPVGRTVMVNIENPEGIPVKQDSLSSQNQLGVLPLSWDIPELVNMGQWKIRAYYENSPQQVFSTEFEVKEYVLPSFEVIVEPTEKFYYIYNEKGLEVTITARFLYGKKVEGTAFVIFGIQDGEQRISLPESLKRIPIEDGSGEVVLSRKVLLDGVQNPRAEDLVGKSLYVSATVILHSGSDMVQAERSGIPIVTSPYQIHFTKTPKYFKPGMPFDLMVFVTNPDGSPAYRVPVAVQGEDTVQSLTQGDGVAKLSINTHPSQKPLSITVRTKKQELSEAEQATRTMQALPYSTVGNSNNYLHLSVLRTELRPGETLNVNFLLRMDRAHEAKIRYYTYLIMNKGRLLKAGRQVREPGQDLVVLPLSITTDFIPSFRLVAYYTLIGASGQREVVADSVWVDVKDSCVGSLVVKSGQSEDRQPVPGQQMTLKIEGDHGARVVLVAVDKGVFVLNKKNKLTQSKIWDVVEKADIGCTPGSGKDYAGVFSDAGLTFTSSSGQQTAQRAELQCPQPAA
Sequence of C3b (Homo sapiens) (P01024 749-1663, chain 2 of 2): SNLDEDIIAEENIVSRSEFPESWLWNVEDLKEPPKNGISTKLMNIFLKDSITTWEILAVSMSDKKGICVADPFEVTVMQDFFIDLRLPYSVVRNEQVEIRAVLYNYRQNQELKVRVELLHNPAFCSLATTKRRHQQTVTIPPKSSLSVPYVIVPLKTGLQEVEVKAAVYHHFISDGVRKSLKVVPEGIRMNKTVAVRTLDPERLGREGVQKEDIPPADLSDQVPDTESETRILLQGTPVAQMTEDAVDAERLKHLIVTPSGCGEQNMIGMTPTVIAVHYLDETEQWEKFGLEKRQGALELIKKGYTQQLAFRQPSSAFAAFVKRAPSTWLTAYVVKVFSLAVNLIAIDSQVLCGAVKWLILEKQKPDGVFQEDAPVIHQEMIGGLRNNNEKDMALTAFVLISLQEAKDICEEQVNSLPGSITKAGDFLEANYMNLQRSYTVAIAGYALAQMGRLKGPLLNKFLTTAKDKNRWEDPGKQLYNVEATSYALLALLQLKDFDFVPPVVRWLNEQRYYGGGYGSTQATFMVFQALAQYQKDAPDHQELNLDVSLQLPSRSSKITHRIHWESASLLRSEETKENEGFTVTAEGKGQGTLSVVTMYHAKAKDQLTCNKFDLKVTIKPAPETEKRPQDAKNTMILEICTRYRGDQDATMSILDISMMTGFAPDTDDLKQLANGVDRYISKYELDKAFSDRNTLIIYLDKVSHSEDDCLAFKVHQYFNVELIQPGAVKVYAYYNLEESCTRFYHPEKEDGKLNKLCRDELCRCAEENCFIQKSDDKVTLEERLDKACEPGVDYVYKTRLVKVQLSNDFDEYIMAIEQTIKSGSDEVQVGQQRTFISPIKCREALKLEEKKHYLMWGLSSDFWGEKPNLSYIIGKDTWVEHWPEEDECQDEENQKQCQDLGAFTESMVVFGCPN
Sequence of Factor H (62V) (P08603 19-1231): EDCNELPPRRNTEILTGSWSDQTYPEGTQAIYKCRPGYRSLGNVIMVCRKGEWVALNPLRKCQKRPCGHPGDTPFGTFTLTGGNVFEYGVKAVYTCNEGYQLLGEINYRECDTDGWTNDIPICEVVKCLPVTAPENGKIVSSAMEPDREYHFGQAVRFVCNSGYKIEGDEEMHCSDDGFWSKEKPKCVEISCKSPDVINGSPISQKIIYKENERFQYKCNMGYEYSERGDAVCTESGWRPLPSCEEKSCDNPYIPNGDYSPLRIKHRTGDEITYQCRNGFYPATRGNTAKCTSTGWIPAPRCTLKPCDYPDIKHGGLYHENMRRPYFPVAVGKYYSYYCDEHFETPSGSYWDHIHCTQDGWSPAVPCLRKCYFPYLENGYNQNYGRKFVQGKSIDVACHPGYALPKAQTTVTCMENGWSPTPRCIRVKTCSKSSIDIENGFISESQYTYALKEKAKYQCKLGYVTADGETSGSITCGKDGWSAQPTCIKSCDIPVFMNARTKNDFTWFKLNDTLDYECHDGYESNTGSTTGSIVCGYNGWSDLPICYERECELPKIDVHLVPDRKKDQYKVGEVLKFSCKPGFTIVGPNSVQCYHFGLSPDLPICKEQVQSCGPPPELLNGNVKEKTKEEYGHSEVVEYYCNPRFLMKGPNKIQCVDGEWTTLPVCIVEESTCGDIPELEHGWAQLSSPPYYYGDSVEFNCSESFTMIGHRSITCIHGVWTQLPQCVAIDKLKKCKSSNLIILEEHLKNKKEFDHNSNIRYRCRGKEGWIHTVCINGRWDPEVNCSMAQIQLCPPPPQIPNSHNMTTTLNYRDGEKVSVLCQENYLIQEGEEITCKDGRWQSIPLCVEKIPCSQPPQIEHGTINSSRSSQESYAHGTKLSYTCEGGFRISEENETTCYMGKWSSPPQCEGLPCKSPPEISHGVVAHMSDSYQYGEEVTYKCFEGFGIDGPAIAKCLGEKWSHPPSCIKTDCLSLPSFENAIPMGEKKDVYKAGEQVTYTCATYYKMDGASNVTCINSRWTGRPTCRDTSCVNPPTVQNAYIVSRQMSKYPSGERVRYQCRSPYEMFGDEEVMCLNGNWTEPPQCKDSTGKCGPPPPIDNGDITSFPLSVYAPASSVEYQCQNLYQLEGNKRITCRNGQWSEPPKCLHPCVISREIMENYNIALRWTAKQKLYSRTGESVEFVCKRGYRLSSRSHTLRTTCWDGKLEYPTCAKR

Row | Kd [1] [µM] | Kd [2] [µM] | Substance
1 | 1 | – | Factor H (62I) (from UniProt P08603)
2 | – | 1.3 | Factor H (62V) (from UniProt P08603)
